Tests used:
[1] = target: T1, human ILT4 expressed on cells (human, UniProt Q8N423 22-597); experiment: flow cytometry, AF647-labelled mAb on ILT4-CHO cells
T1 construct: whole, on cells; also called CHO-S/ILT4 cells; ILT4-CHO cells
Protocol: (§1) AF647-Hz45.01-LALA and AF647-Hz156.03-LALA at various concentrations (0-10 μg/ml) were incubated with ILT4-CHO cells and analyzed by flow cytometry.

[2] = target: T1, human ILT4 expressed on cells; experiment: flow cytometry, blockade of PE-HLA-A tetramer (5 ug/ml) binding to ILT4-CHO cells, Experiment 2 (table title prints HLA-G)
[3] = target: T1, human ILT4 expressed on cells; experiment: flow cytometry, direct binding of AF647-labelled antibody (0-10 µg/ml) to ILT4-CHO cells
Protocol: as §1

[4] = target: T1, human ILT4 expressed on cells; experiment: flow cytometry, blockade of PE-HLA-A tetramer (5 ug/ml) binding to ILT4-CHO cells, Experiment 3 (table title prints HLA-G)
[5] = target: T1, human ILT4 expressed on cells; experiment: flow cytometry, blockade of PE-HLA-G tetramer binding to ILT4-CHO cells, Experiment 1
[6] = target: T2, recombinant human ILT4 (LILRB2) (human, UniProt Q8N423 22-460); experiment: SPR, high resolution kinetics, triplicate, LALA antibody; 95% CI in parentheses
T2 construct: Bought protein (Acro Biosystems or R&D Systems); also called ILTR4
T2 sequence (Q8N423 other isoform, or with tags, fused parts or gaps limits assumed): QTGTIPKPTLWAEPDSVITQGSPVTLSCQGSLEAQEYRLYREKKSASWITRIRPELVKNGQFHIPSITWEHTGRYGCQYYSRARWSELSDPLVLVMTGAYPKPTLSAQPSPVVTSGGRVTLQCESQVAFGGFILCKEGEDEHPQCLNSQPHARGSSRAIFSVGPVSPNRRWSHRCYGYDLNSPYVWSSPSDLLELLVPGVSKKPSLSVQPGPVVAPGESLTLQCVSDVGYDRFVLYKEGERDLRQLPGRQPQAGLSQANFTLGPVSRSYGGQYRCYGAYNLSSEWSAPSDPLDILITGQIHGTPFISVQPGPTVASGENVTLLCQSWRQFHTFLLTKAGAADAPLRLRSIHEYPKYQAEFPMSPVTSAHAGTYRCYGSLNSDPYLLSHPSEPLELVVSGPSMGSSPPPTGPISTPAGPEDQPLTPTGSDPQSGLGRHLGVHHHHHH

[7] = target: T2, recombinant human ILT4 (LILRB2); experiment: SPR, Biacore T200, mAb captured on anti-Fc, ILT4 injected, medium resolution, 25 C
Summary of the method: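 Mouse, chimeric or humanized mAbs captured on anti-Fc surfaces (CM4 chip); ILT4 injected at 101 to 0.79 nM, 2-fold series, 90 s association, 1200 s dissociation. Run at 25° C in HBS-P+ pH 7.4 with 100 μg/ml BSA; double-referenced global 1:1 fit with mass-transport term, KD=koff/kon.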

LILRB4 = target: T3, LILRB4 (human, UniProt Q8NHJ6 22-259); experiment: SPR, Biacore 8K, mAb captured on anti-human Fc, analyte injected
T3 construct: Bought protein; limits of the extracellular domain are marked by bold type not visible here; whole entry named; also called recombinant human LILRB4; ILT3
T3 sequence (Q8NHJ6 other isoform, or with tags, fused parts or gaps): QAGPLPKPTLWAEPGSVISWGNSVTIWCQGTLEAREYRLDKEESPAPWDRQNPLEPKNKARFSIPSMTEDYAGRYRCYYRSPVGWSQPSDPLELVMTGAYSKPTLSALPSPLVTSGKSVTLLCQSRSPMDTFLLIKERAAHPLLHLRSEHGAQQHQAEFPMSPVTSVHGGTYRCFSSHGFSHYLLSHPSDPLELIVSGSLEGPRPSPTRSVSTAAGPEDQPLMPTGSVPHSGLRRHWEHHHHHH
Protocol: (§2) SPR was used to determine the specificity of four humanized anti-ILT4 mAbs for binding to LILRB2 and to determine any cross-reactivity with nine other LILRA and LILRB family members. LILR proteins were purchased from Acro Biosystems or R&D Systems, with sequence provided below. The studies were performed with a Biacore 8K instrument using a CM4 sensor chip with a running buffer of HBS-P+, 100 μg/mL BSA. Anti-human Fc specific capture surfaces were prepared using standard amine coupling chemistry. MAb was captured to flow cell 2 with flow cell 1 serving as the reference flow cell. Each of the nine family members and LILRB2 were injected at 100 nM at 30 μL/min for 90 sec with 240 sec of dissociation. […] All sensorgrams were doubled-referenced during processing of the data.

LILRA2 = target: T4, LILRA2 (human, UniProt Q8N149 24-449); experiment: as above
T4 construct: Bought protein; limits of the extracellular domain are marked by bold type not visible here; whole entry named; also called recombinant human LILRA2
T4 sequence (Q8N149 other isoform, or with tags, fused parts or gaps): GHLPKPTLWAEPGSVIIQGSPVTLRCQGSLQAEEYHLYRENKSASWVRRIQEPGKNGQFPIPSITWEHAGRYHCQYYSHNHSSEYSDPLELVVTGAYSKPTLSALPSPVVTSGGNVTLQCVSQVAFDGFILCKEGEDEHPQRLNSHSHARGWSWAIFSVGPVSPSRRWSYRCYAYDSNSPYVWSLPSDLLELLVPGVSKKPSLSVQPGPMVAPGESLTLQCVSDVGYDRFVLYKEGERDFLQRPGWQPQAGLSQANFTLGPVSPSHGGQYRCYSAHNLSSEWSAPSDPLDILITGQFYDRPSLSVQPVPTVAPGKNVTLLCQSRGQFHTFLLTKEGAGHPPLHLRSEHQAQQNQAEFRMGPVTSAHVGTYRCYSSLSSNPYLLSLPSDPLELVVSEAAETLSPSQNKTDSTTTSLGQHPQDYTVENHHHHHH
Protocol: as §2

LILRA4 = target: T5, LILRA4 (human, UniProt P59901 24-446); experiment: as above
T5 construct: Bought protein; limits of the extracellular domain are marked by bold type not visible here; whole entry named; also called recombinant human LILRA4
T5 sequence (P59901 other isoform, or with tags, fused parts or gaps): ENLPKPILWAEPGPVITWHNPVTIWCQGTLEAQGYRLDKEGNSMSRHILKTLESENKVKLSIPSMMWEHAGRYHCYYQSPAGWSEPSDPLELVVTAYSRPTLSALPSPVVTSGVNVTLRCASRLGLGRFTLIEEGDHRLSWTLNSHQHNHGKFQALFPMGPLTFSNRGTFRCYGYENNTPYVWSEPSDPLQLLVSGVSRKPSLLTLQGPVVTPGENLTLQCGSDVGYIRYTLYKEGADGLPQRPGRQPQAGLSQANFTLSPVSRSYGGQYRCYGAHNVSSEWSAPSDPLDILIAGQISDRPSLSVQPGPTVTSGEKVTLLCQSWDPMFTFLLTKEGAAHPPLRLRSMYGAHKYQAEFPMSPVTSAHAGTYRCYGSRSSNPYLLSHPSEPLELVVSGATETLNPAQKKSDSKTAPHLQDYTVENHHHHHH
Protocol: as §2

LILRA5 = target: T6, LILRA5 (human, UniProt A6NI73 42-268); experiment: as above
T6 construct: Bought protein; limits of the extracellular domain are marked by bold type not visible here; whole entry named; also called recombinant human LILRA5
T6 sequence (A6NI73 other isoform, or with tags, fused parts or gaps): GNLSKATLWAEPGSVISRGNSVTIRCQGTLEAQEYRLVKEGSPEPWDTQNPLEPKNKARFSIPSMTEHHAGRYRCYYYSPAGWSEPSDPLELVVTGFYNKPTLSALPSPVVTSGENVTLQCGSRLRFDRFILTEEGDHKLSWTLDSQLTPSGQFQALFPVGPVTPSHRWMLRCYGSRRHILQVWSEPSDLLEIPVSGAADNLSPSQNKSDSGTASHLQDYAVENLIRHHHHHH
Protocol: as §2

LILRA3 = target: T7, LILRA3 (human, UniProt Q8N6C8 24-439); experiment: as above
T7 construct: Bought protein; limits of the part used are marked by bold type not visible here; whole entry named; also called recombinant human LILRA3
T7 sequence (Q8N6C8 24-439 A105V limits assumed): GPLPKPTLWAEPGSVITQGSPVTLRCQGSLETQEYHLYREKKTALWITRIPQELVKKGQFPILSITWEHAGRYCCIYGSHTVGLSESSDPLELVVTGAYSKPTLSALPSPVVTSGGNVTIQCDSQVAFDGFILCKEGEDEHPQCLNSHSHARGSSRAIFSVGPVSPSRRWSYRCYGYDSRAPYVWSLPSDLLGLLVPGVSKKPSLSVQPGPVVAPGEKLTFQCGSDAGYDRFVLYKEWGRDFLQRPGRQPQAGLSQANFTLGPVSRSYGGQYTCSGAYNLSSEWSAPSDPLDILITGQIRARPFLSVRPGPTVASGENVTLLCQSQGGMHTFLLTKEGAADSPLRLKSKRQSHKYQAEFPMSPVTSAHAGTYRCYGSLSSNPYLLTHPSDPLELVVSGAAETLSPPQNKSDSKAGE
Protocol: as §2

LILRA1 = target: T8, LILRA1 (human, UniProt O75019 17-461); experiment: as above
T8 construct: Bought protein; limits of the extracellular domain are marked by bold type not visible here; whole entry named; also called recombinant human LILRA1
T8 sequence (O75019 other isoform, or with tags, fused parts or gaps): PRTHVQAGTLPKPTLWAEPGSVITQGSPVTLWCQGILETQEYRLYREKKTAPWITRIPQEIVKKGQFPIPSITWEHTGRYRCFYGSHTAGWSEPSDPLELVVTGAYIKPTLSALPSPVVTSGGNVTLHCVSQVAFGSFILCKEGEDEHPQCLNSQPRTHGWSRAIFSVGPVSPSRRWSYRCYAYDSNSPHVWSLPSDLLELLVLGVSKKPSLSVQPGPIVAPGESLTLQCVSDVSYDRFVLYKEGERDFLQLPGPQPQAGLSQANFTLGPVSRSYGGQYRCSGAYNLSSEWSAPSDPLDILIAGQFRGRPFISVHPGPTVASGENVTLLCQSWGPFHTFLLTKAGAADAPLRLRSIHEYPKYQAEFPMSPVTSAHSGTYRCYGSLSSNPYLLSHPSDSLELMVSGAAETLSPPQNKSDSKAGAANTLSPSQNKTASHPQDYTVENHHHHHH
Protocol: as §2

[8] = target: T1, human ILT4 expressed on cells; experiment: flow cytometry, blockade of PE-HLA-G tetramer binding to ILT4-CHO cells, Experiment 3
[9] = target: T2, recombinant human ILT4 (LILRB2); experiment: SPR, high resolution kinetics, triplicate, LALA antibody
[10] = target: T1, human ILT4 expressed on cells; experiment: flow cytometry on ILT4-CHO cells, unlabelled mAb titrated; competitor AF647-Hz156.03-LALA
Protocol: Competition binding assays were performed. […] Binding activities were measured by flow cytometry.
Anti-human ILT4 mAbs at various concentrations (0-15 μg/ml) were incubated with ILT4-CHO cells. Cells were washed and stained with AF647-Hz156.03-LALA. Cells were analyzed by flow cytometry.

[11] = target: T1, human ILT4 expressed on cells; experiment: cell-based or functional assay

T1 sequence (Q8N423 22-597): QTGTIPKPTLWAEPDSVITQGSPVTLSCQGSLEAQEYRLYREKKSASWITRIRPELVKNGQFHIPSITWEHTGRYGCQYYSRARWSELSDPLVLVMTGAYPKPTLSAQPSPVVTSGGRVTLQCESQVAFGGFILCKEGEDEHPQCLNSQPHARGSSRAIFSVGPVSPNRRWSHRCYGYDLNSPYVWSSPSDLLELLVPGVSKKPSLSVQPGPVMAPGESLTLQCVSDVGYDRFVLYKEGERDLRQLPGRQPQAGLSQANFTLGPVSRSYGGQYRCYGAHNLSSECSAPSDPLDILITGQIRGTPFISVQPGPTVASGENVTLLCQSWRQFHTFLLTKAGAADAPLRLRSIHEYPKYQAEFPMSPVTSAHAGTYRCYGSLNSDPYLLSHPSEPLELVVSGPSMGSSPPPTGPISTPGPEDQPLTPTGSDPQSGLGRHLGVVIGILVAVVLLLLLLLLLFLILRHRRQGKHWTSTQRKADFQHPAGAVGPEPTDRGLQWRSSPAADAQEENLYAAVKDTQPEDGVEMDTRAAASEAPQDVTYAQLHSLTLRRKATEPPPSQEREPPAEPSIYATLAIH

Binder | EC50 [1] [µg/mL] | IC50 [2] [µg/mL] | EC50 (read off the curve) [3] [µg/mL] | IC50 [4] [µg/mL] | IC50 [5] [µg/mL] | kon [6] [M⁻¹ s⁻¹] | kon [7] [M⁻¹ s⁻¹] | binding result (LILRB4) | binding result (LILRA2) | binding result (LILRA4) | binding result (LILRA5) | binding result (LILRA3) | binding result (LILRA1) | IC50 [8] [µg/mL] | Kd [9] [pM] | koff [9] [s⁻¹] | IC50 [10] [µg/mL] | EC50 value of TNFa production, donor 4 [11] [µg/mL] | EC50 value of TNFa production, donor 5 [11] [µg/mL] | further results
Hz45.01-LALA (antibody, human IgG1, kappa, L234A L235A, V domains shown, Humanized L45S4, human IgG1 L234A/L235A, kappa; also called Humanized 45_01; Hu IgG 45_01 LALA) VH: QVQLVQSGAEVKKPGASVKVSCKASGYTFTDYYMNWVRQAPGQRLEWIGDINPNNGGTSYNQKFKGRATITVDTSASTAYMELSSLRSEDTAVYYCARGGAELTGTYWYFDVWGQGTTVTVSS VL: DIQMTQSPSSLSASVGDRVTITCRASENIYSNLAWYQQKPGKAPKVLVYGATNLADGVPSRFSGSGSGTEYTLTISSLQPEDFATYYCQHFWDSPFTFGGGTKVEIKR | 162 | 0.122 | ~0.2 | 0.109 | 0.198 | 3.45e+06 | 330000 | no binding (tested: 100 nM) | no binding (tested: 100 nM) | no binding (tested: 100 nM) | no binding (tested: 100 nM) | no binding (tested: 100 nM) | no binding (tested: 100 nM) | 0.185 | 154 | 0.000531 | 0.381 | 0.0138 | 0.0185 | Kd [7]: 1270 pM; koff [7]: 0.000418 s⁻¹
Hz156.03-LALA (antibody, human IgG1, kappa, L234A L235A, V domains shown, Humanized L156S3, human IgG1 L234A/L235A, kappa) VH: QVQLVQSGAEVKKPGSSVKVSCKASGYTFTDYYMNWVRQAPGQGLEWIARIYPGVYRTHYNEKFKDRVTLTADKSTSTAYMELSSLRSEDTAVYYCARSGYYGGTYEEDAMDYWGQGTTVTVSS VL: DIQMTQSPSSLSASVGDRVTITCRASENIYSNLAWYQQKPGKAPKLLVYAATSLADGVPSRFSGSGSGTDYTLTISSLQPEDFATYYCQNFWDTPYTFGQGTKVEIKR | 248 | 0.152 | ~0.2 | 0.164 | 0.19 | 3.22e+06 | 497000 | no binding (tested: 100 nM) | no binding (tested: 100 nM) | no binding (tested: 100 nM) | no binding (tested: 100 nM) | no binding (tested: 100 nM) | no binding (tested: 100 nM) | 0.233 | 5.7 | 1.83e-05 | 0.422 | 0.00724 | 0.0236 | 
